Data: US20160367623A1, “AGONISTS OF GUANYLATE CYCLASE USEFUL FOR THE TREATMENT OF GASTROINTESTINAL DISORDERS, INFLAMMATION, CANCER AND OTHER DISORDERS” (priority 2015, published 2016)
Bridge positions count the residues as written; N and C are the ends. Ends that are not written are not given here.

System: patients with chronic idiopathic constipation (CIC)
Experiment: Second phase 3 CIC trial: treatment emergent adverse events, safety

Asn^1-Asp^2-Glu^3-Cys^4-Glu^5-Leu^6-Cys^7-Val^8-Asn^9-Val^10-Ala^11-Cys^12-Thr^13-Gly^14-Cys^15-Leu^16 (NDECELCVNVACTGCL; disulfide 4-12, 7-15) [Plecanatide]
Influenza like illness: events E (Active Combined (N = 936)): 1
Influenza like illness: patients % (Active Combined (N = 936)): (0.1) %
Influenza like illness: patients (%) (Active Combined (N = 936)): (0.1) %
Influenza like illness: patients N (Active Combined (N = 936)): 1
Influenza: events E (Active Combined (N = 936)): 9
Influenza: patients % (Active Combined (N = 936)): (1.0) %
Influenza: patients N (Active Combined (N = 936)): 9
Injury, poisoning and procedural complications (SOC): events E (Active Combined (N = 936)): 19
Injury, poisoning and procedural complications (SOC): patients % (Active Combined (N = 936)): (1.7) %
Injury, poisoning and procedural complications (SOC): patients N (Active Combined (N = 936)): 16
Insomnia, events E (Active Combined (N = 936)): 3
Insomnia, patients (%) (Active Combined (N = 936)): (0.3) %
Insomnia, patients N (Active Combined (N = 936)): 3
Intervertebral disc disorder, Mild: events E (Active Combined (N = 936)): 0
Intervertebral disc disorder, Mild: patients N (Active Combined (N = 936)): 0
Intervertebral disc disorder, Moderate: events E (Active Combined (N = 936)): 0
Ligament sprain, events E (Active Combined (N = 936)): 2
Ligament sprain, patients (%) (Active Combined (N = 936)): (0.2) %
Ligament sprain, patients N (Active Combined (N = 936)): 2
Musculoskeletal and connective tissue disorders [System Organ Class], events E (Active Combined (N = 936)): 19
Musculoskeletal and connective tissue disorders [System Organ Class], patients (%) (Active Combined (N = 936)): (2.0) %
Musculoskeletal and connective tissue disorders [System Organ Class], patients N (Active Combined (N = 936)): 19
Musculoskeletal and connective tissue disorders, Mild: events E (Active Combined (N = 936)): 10
Musculoskeletal and connective tissue disorders, Mild: patients (%) (Active Combined (N = 936)): (1.1) %
Musculoskeletal and connective tissue disorders, Mild: patients N (Active Combined (N = 936)): 10
Musculoskeletal and connective tissue disorders, Moderate: events E (Active Combined (N = 936)): 9
Musculoskeletal and connective tissue disorders, Moderate: patients (%) (Active Combined (N = 936)): (1.0) %
Musculoskeletal and connective tissue disorders, Moderate: patients N (Active Combined (N = 936)): 9
Musculoskeletal and connective tissue disorders, Severe: events E (Active Combined (N = 936)): 0
Musculoskeletal and connective tissue disorders, Severe: patients N (Active Combined (N = 936)): 0
Musculoskeletal and connective tissue disorders: events E (Active Combined (N = 936)): 19
Musculoskeletal and connective tissue disorders: patients (%) (Active Combined (N = 936)): (2.0) %
Musculoskeletal and connective tissue disorders: patients N (Active Combined (N = 936)): 19
Musculoskeletal chest pain, Mild: events E (Active Combined (N = 936)): 1
Musculoskeletal chest pain, Mild: patients (%) (Active Combined (N = 936)): (0.1) %
Musculoskeletal chest pain, Mild: patients N (Active Combined (N = 936)): 1
Musculoskeletal chest pain, Moderate: events E (Active Combined (N = 936)): 0
Musculoskeletal chest pain, Moderate: patients N (Active Combined (N = 936)): 0
Musculoskeletal chest pain, Severe: events E (Active Combined (N = 936)): 0
Musculoskeletal chest pain, Severe: patients N (Active Combined (N = 936)): 0
Musculoskeletal chest pain: events E (Active Combined (N = 936)): 1
Musculoskeletal chest pain: patients (%) (Active Combined (N = 936)): (0.1) %
Musculoskeletal chest pain: patients N (Active Combined (N = 936)): 1
Musculoskeletal pain, Mild: events E (Active Combined (N = 936)): 1
Musculoskeletal pain, Mild: patients (%) (Active Combined (N = 936)): (0.1) %
Musculoskeletal pain, Mild: patients N (Active Combined (N = 936)): 1
Musculoskeletal pain, Moderate: events E (Active Combined (N = 936)): 1
Musculoskeletal pain, Moderate: patients (%) (Active Combined (N = 936)): (0.1) %
Musculoskeletal pain, Moderate: patients N (Active Combined (N = 936)): 1
Musculoskeletal pain, Severe: events E (Active Combined (N = 936)): 0
Musculoskeletal pain, Severe: patients N (Active Combined (N = 936)): 0
Musculoskeletal pain: events E (Active Combined (N = 936)): 2
Musculoskeletal pain: patients (%) (Active Combined (N = 936)): (0.2) %
Musculoskeletal pain: patients N (Active Combined (N = 936)): 2
SAE Musculoskeletal and connective tissue disorders, E events (Active Combined (N = 936)): 0
SAE Musculoskeletal and connective tissue disorders, N patients (Active Combined (N = 936)): 0
SAE Musculoskeletal and connective tissue disorders, No Reasonable Possibility, E events (Active Combined (N = 936)): 0
SAE Musculoskeletal and connective tissue disorders, No Reasonable Possibility, N patients (Active Combined (N = 936)): 0
SAE Musculoskeletal and connective tissue disorders, Reasonable Possibility, E events (Active Combined (N = 936)): 0
SAE Musculoskeletal and connective tissue disorders, Reasonable Possibility, N patients (Active Combined (N = 936)): 0
Skeletal injury, events E (Active Combined (N = 936)): 1
Skeletal injury, patients (%) (Active Combined (N = 936)): (0.1) %
Skeletal injury, patients N (Active Combined (N = 936)): 1
TE SAE: Musculoskeletal and connective tissue disorders, E events (Active Combined (N = 936)): 0
TE SAE: Musculoskeletal and connective tissue disorders, N patients (Active Combined (N = 936)): 0
TEAE Leading to Discontinuation: Infections and infestations, % patients (Active Combined (N = 936)): (0.1) %
TEAE Leading to Discontinuation: Infections and infestations, E events (Active Combined (N = 936)): 1
TEAE Leading to Discontinuation: Infections and infestations, N patients (Active Combined (N = 936)): 1
TEAE Leading to Discontinuation: Musculoskeletal and connective tissue disorders, E events (Active Combined (N = 936)): 0
TEAE Leading to Discontinuation: Musculoskeletal and connective tissue disorders, N patients (Active Combined (N = 936)): 0
TEAE Leading to Discontinuation: Viral infection, % patients (Active Combined (N = 936)): (0.1) %
TEAE Leading to Discontinuation: Viral infection, E events (Active Combined (N = 936)): 1
TEAE Leading to Discontinuation: Viral infection, N patients (Active Combined (N = 936)): 1
Musculoskeletal and connective tissue disorders [System Organ Class], events E (Plecanatide 3 mg (N = 467)): 8
Musculoskeletal and connective tissue disorders [System Organ Class], patients (%) (Plecanatide 3 mg (N = 467)): (1.7) %
Musculoskeletal and connective tissue disorders [System Organ Class], patients N (Plecanatide 3 mg (N = 467)): 8
Musculoskeletal and connective tissue disorders, Mild: events E (Plecanatide 3 mg (N = 467)): 4
Musculoskeletal and connective tissue disorders, Mild: patients (%) (Plecanatide 3 mg (N = 467)): (0.9) %
Musculoskeletal and connective tissue disorders, Mild: patients N (Plecanatide 3 mg (N = 467)): 4
Musculoskeletal and connective tissue disorders, Moderate: events E (Plecanatide 3 mg (N = 467)): 4
Musculoskeletal and connective tissue disorders, Moderate: patients (%) (Plecanatide 3 mg (N = 467)): (0.9) %
Musculoskeletal and connective tissue disorders, Moderate: patients N (Plecanatide 3 mg (N = 467)): 4
Musculoskeletal and connective tissue disorders, Severe: events E (Plecanatide 3 mg (N = 467)): 0
Musculoskeletal and connective tissue disorders, Severe: patients N (Plecanatide 3 mg (N = 467)): 0
Musculoskeletal and connective tissue disorders: events E (Plecanatide 3 mg (N = 467)): 8
Musculoskeletal and connective tissue disorders: patients (%) (Plecanatide 3 mg (N = 467)): (1.7) %
Musculoskeletal and connective tissue disorders: patients N (Plecanatide 3 mg (N = 467)): 8
Musculoskeletal chest pain, Mild: events E (Plecanatide 3 mg (N = 467)): 1
Musculoskeletal chest pain, Mild: patients (%) (Plecanatide 3 mg (N = 467)): (0.2) %
Musculoskeletal chest pain, Mild: patients N (Plecanatide 3 mg (N = 467)): 1
Musculoskeletal chest pain, Moderate: events E (Plecanatide 3 mg (N = 467)): 0
Musculoskeletal chest pain, Moderate: patients N (Plecanatide 3 mg (N = 467)): 0
Musculoskeletal chest pain, Severe: events E (Plecanatide 3 mg (N = 467)): 0
Musculoskeletal chest pain, Severe: patients N (Plecanatide 3 mg (N = 467)): 0
Musculoskeletal chest pain: events E (Plecanatide 3 mg (N = 467)): 1
Musculoskeletal chest pain: patients (%) (Plecanatide 3 mg (N = 467)): (0.2) %
Musculoskeletal chest pain: patients N (Plecanatide 3 mg (N = 467)): 1
Musculoskeletal pain, Mild: events E (Plecanatide 3 mg (N = 467)): 1
Musculoskeletal pain, Mild: patients (%) (Plecanatide 3 mg (N = 467)): (0.2) %
Musculoskeletal pain, Mild: patients N (Plecanatide 3 mg (N = 467)): 1
Musculoskeletal pain, Moderate: events E (Plecanatide 3 mg (N = 467)): 0
Musculoskeletal pain, Moderate: patients N (Plecanatide 3 mg (N = 467)): 0
Musculoskeletal pain, Severe: events E (Plecanatide 3 mg (N = 467)): 0
Musculoskeletal pain, Severe: patients N (Plecanatide 3 mg (N = 467)): 0
Musculoskeletal pain: events E (Plecanatide 3 mg (N = 467)): 1
Musculoskeletal pain: patients (%) (Plecanatide 3 mg (N = 467)): (0.2) %
Musculoskeletal pain: patients N (Plecanatide 3 mg (N = 467)): 1
Skeletal injury, events E (Plecanatide 3 mg (N = 467)): 0
Skeletal injury, patients N (Plecanatide 3 mg (N = 467)): 0
TE SAE: Musculoskeletal and connective tissue disorders, E events (Plecanatide 3 mg (N = 467)): 0
TE SAE: Musculoskeletal and connective tissue disorders, N patients (Plecanatide 3 mg (N = 467)): 0
TEAE Leading to Discontinuation: Musculoskeletal and connective tissue disorders, E events (Plecanatide 3 mg (N = 467)): 0
TEAE Leading to Discontinuation: Musculoskeletal and connective tissue disorders, N patients (Plecanatide 3 mg (N = 467)): 0
Musculoskeletal and connective tissue disorders [System Organ Class], events E (Plecanatide 6 mg (N = 469)): 11
Musculoskeletal and connective tissue disorders [System Organ Class], patients (%) (Plecanatide 6 mg (N = 469)): (2.3) %
Musculoskeletal and connective tissue disorders [System Organ Class], patients N (Plecanatide 6 mg (N = 469)): 11
Musculoskeletal and connective tissue disorders, Mild: events E (Plecanatide 6 mg (N = 469)): 6
Musculoskeletal and connective tissue disorders, Mild: patients (%) (Plecanatide 6 mg (N = 469)): (1.3) %
Musculoskeletal and connective tissue disorders, Mild: patients N (Plecanatide 6 mg (N = 469)): 6
Musculoskeletal and connective tissue disorders, Moderate: events E (Plecanatide 6 mg (N = 469)): 5
Musculoskeletal and connective tissue disorders, Moderate: patients (%) (Plecanatide 6 mg (N = 469)): (1.1) %
Musculoskeletal and connective tissue disorders, Moderate: patients N (Plecanatide 6 mg (N = 469)): 5
Musculoskeletal and connective tissue disorders, Severe: events E (Plecanatide 6 mg (N = 469)): 0
Musculoskeletal and connective tissue disorders, Severe: patients N (Plecanatide 6 mg (N = 469)): 0
Musculoskeletal and connective tissue disorders: events E (Plecanatide 6 mg (N = 469)): 11
Musculoskeletal and connective tissue disorders: patients (%) (Plecanatide 6 mg (N = 469)): (2.3) %
Musculoskeletal and connective tissue disorders: patients N (Plecanatide 6 mg (N = 469)): 11
Musculoskeletal chest pain, Mild: events E (Plecanatide 6 mg (N = 469)): 0
Musculoskeletal chest pain, Mild: patients N (Plecanatide 6 mg (N = 469)): 0
Musculoskeletal chest pain, Moderate: events E (Plecanatide 6 mg (N = 469)): 0
Musculoskeletal chest pain, Moderate: patients N (Plecanatide 6 mg (N = 469)): 0
Musculoskeletal chest pain, Severe: events E (Plecanatide 6 mg (N = 469)): 0
Musculoskeletal chest pain, Severe: patients N (Plecanatide 6 mg (N = 469)): 0
Musculoskeletal chest pain: events E (Plecanatide 6 mg (N = 469)): 0
Musculoskeletal chest pain: patients N (Plecanatide 6 mg (N = 469)): 0
Musculoskeletal pain, Mild: events E (Plecanatide 6 mg (N = 469)): 0
Musculoskeletal pain, Mild: patients N (Plecanatide 6 mg (N = 469)): 0
Musculoskeletal pain, Moderate: events E (Plecanatide 6 mg (N = 469)): 1
Musculoskeletal pain, Moderate: patients (%) (Plecanatide 6 mg (N = 469)): (0.2) %
Musculoskeletal pain, Moderate: patients N (Plecanatide 6 mg (N = 469)): 1
Musculoskeletal pain, Severe: events E (Plecanatide 6 mg (N = 469)): 0
Musculoskeletal pain, Severe: patients N (Plecanatide 6 mg (N = 469)): 0
Musculoskeletal pain: events E (Plecanatide 6 mg (N = 469)): 1
Musculoskeletal pain: patients (%) (Plecanatide 6 mg (N = 469)): (0.2) %
Musculoskeletal pain: patients N (Plecanatide 6 mg (N = 469)): 1
Skeletal injury, events E (Plecanatide 6 mg (N = 469)): 1
Skeletal injury, patients (%) (Plecanatide 6 mg (N = 469)): (0.2) %
Skeletal injury, patients N (Plecanatide 6 mg (N = 469)): 1
TE SAE: Musculoskeletal and connective tissue disorders, E events (Plecanatide 6 mg (N = 469)): 0
TE SAE: Musculoskeletal and connective tissue disorders, N patients (Plecanatide 6 mg (N = 469)): 0
TEAE Leading to Discontinuation: Musculoskeletal and connective tissue disorders, E events (Plecanatide 6 mg (N = 469)): 0
TEAE Leading to Discontinuation: Musculoskeletal and connective tissue disorders, N patients (Plecanatide 6 mg (N = 469)): 0
